According to paper PMC9361823, “The α- and β-Subunit Boundary at the Stem of the Mushroom-Like α3β3-Type Oxygenase Component of Rieske Non-Heme Iron Oxygenases Is the Rieske-Type Ferredoxin-Binding Site” (Applied and Environmental Microbiology, 2022):

Biological target: the molecule itself
Assay: SEC; α (His6) and untagged β co-expressed in E. coli and co-purified by metal chelation and gel filtration (Superdex200; 20 mM Tris-HCl, 0.2 M NaCl, 10% glycerol, pH 7.4); 150- to 200-kDa complex in solution (Fig. S1; the text does not say how the size was estimated)

Protein | binding result
α-subunit of CumDO-O (CumA1) (natural protein, CumA1, α-subunit of CumDO-O (cumene dioxygenase oxygenase component); also called 51-kDa α-subunit; not shown: His6, C-terminal, kept) not shown | binds
β-subunit of CumDO-O (CumA2) (natural protein, Pseudomonas fluorescens IP01, UniProt Q51744 1-186, looked up, CumA2, β-subunit of CumDO-O (cumene dioxygenase oxygenase component), not tagged; also called 21-kDa β-subunit) MTSADLTKPIEWPEMPVSLELQNAVEQFYYREAQLLDYQNYEAWLALLTQDIQYWMPIRTTHTSRNKAMEYVPPGGNAHFDETYESMRARIRARVSGLNWTEDPPSRSRHIVSNVIVRETESAGTLEVSSAFLCYRNRLERMTDIYVGERRDILLRVSDGLGFKIAKRTILLDQSTITANNLSQFF | binds
